For 2 substances, fold higher affinity of Agrin B8 than of Agrin B0, EC50 and fold increase of binding with calcium against without calcium results are on record in article PMC2933840.

The target of the test is Flag-Lrp4-mCherry (mouse) (UniProt Q8VI56). In words: flow cytometry on cells.

The term EC50 denotes the concentration giving half of the maximal effect. A lower EC50 goes with a more potent agent.

Chain of UniProt Q8VI56 (Q8VI56 21-1905): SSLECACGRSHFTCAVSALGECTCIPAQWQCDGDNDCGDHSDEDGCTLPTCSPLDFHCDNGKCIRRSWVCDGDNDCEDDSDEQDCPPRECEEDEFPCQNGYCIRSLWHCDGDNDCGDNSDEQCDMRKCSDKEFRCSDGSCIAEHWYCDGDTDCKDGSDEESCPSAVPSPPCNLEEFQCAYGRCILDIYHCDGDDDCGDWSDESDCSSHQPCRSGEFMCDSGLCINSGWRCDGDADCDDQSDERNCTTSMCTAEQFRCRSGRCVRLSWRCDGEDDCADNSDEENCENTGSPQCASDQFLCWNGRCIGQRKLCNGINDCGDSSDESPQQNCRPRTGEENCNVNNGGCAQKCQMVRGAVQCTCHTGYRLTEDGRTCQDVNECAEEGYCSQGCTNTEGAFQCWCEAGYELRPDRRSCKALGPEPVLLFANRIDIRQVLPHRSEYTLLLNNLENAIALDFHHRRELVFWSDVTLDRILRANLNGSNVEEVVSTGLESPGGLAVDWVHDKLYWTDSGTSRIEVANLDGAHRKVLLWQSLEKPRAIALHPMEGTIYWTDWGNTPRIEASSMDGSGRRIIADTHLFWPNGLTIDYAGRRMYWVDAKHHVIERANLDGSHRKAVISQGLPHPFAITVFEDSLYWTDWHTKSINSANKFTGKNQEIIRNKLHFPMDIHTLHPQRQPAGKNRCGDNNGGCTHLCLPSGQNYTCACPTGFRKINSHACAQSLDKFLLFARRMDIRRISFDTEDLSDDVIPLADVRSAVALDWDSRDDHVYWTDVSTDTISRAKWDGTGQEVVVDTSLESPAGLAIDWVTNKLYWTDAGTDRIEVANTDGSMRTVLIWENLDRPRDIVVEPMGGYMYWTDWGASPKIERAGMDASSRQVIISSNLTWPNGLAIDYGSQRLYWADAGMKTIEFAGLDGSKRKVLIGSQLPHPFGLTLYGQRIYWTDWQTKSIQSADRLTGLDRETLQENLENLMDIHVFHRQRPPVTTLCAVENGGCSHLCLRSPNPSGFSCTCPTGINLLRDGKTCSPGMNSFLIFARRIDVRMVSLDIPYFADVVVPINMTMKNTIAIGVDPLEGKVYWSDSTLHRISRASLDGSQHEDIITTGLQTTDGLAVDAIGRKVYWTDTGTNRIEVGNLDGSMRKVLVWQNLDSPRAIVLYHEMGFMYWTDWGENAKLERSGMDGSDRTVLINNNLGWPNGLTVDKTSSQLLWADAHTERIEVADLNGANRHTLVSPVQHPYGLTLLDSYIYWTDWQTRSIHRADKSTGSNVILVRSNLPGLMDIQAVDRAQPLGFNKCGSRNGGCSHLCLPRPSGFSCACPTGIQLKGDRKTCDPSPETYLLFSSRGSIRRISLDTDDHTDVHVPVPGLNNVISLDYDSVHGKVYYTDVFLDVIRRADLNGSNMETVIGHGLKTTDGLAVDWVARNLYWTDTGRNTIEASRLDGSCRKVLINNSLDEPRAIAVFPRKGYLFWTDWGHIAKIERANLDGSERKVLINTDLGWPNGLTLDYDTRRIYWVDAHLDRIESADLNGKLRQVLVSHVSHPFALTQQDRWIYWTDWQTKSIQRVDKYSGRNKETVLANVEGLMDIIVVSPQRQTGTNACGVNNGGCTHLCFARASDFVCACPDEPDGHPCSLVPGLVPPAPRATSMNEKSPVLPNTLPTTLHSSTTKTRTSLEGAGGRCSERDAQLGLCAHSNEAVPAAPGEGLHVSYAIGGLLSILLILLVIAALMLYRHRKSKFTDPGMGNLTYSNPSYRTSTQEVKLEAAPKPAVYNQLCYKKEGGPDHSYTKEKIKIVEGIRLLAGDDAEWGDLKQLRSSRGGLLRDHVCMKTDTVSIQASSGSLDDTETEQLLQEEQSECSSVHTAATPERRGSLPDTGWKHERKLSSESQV

“50 kd C-terminal fragment of Agrin B0 (domain or fragment)”: the fold higher affinity of Agrin B8 than of Agrin B0 was found to be 100 fold. As to “50 kd C-terminal fragment of Agrin B8 (domain or fragment)”, the EC50 was found to be 6 nM and the fold increase of binding with calcium against without calcium was 20 fold.
